From patent publication US20190324040A1

How the values were obtained:
[1] = target: Zika virus (ZIKV), whole virus particles (Zika virus); test: virus capture ELISA
[2] = target: Zika virus (ZIKV), whole virus particles (Zika virus); test: cell-based or functional assay
[3] = target: Zika virus (ZIKV), whole virus particles (Zika virus); test: P1F12-ZIKV binding inhibition ELISA (4G2-captured ZIKV); competitor: 1/10 plasma of donor 138 (DENV+)
[4] = target: Zika virus (ZIKV), whole virus particles (Zika virus); test: P1F12-ZIKV binding inhibition ELISA (4G2-captured ZIKV); competitor: 1/10 plasma of donor 152 (DENV+)
[5] = target: Zika virus (ZIKV), whole virus particles (Zika virus); test: P1F12-ZIKV binding inhibition ELISA (4G2-captured ZIKV); competitor: 1/10 plasma of donor 168 (DENV+)
[6] = target: Zika virus (ZIKV), whole virus particles (Zika virus); test: P1F12-ZIKV binding inhibition ELISA (4G2-captured ZIKV); competitor: 1/10 plasma of donor 177 (DENV+)
[7] = target: Zika virus (ZIKV), whole virus particles (Zika virus); test: P1F12-ZIKV binding inhibition ELISA (4G2-captured ZIKV); competitor: 1/10 plasma of donor 184 (DENV+)
[8] = target: Zika virus (ZIKV), whole virus particles (Zika virus); test: P1F12-ZIKV binding inhibition ELISA (4G2-captured ZIKV); competitor: 1/10 plasma of donor 507 (DENV+)
[9] = target: Zika virus (ZIKV), whole virus particles (Zika virus); test: P1F12-ZIKV binding inhibition ELISA (4G2-captured ZIKV); competitor: 1/10 plasma of donor 533 (ZIKV+)
[10] = target: Zika virus (ZIKV), whole virus particles (Zika virus); test: P1F12-ZIKV binding inhibition ELISA (4G2-captured ZIKV); competitor: 1/10 plasma of donor 801 (ZIKV+)
[11] = target: Zika virus (ZIKV), whole virus particles (Zika virus); test: P1F12-ZIKV binding inhibition ELISA (4G2-captured ZIKV); competitor: 1/10 plasma of donor 802 (ZIKV+)
[12] = target: Zika virus (ZIKV), whole virus particles (Zika virus); test: P1F12-ZIKV binding inhibition ELISA (4G2-captured ZIKV); competitor: 1/10 plasma of donor 1208 (DENV+)
[13] = target: Zika virus (ZIKV), whole virus particles (Zika virus); test: P1F12-ZIKV binding inhibition ELISA (4G2-captured ZIKV); competitor: 1/10 plasma of donor 1235 (DENV+)
[14] = target: Zika virus (ZIKV), whole virus particles (Zika virus); test: P1F12-ZIKV binding inhibition ELISA (4G2-captured ZIKV); competitor: 1/10 plasma of donor 1248 (DENV+)
[15] = target: Zika virus (ZIKV), whole virus particles (Zika virus); test: P1F12-ZIKV binding inhibition ELISA (4G2-captured ZIKV); competitor: 1/10 plasma of donor 1252 (DENV+)
[16] = target: Zika virus (ZIKV), whole virus particles (Zika virus); test: P1F12-ZIKV binding inhibition ELISA (4G2-captured ZIKV); competitor: 1/10 plasma of donor 1280 (DENV+)
[17] = target: Zika virus (ZIKV), whole virus particles (Zika virus); test: P1F12-ZIKV binding inhibition ELISA (4G2-captured ZIKV); competitor: 1/10 plasma of donor 1294 (DENV+)
[18] = target: Zika virus (ZIKV), whole virus particles (Zika virus); test: P1F12-ZIKV binding inhibition ELISA (4G2-captured ZIKV); competitor: 1/10 plasma of donor 1302 (ZIKV+)
[19] = target: Zika virus (ZIKV), whole virus particles (Zika virus); test: P1F12-ZIKV binding inhibition ELISA (4G2-captured ZIKV); competitor: 1/10 plasma of donor 3002 (ZIKV+)
[20] = target: Zika virus (ZIKV), whole virus particles (Zika virus); test: P1F12-ZIKV binding inhibition ELISA (4G2-captured ZIKV); competitor: 1/10 plasma of donor 3004 (ZIKV+)
[21] = target: Zika virus (ZIKV), whole virus particles (Zika virus); test: P1F12-ZIKV binding inhibition ELISA (4G2-captured ZIKV); competitor: 1/10 plasma of donor 3012 (ZIKV+)
[22] = target: Zika virus (ZIKV), whole virus particles (Zika virus); test: P1F12-ZIKV binding inhibition ELISA (4G2-captured ZIKV); competitor: 1/10 plasma of donor 3013 (ZIKV+)
[23] = target: Zika virus (ZIKV), whole virus particles (Zika virus); test: P1F12-ZIKV binding inhibition ELISA (4G2-captured ZIKV); competitor: 1/10 plasma of donor 3018 (ZIKV+)

B1: CC17 mAb (P1F12) (antibody, V domains shown)
VH: QVQLVQSGGGLVQPGGSLRLSCAASGFTFSSYWMSWVRQAPGKGLEWVANIKQDGSEKYYVDSVKGRFTISRDNAKNSLYLQMNSLRAEDTAVYYCAGNGWDDSSGYYYRNYYYGMDVWGQGTTVTVSS
VL: DIQMTQSPSSFSASTGDRVTITCRASQGISSYLAWYQQKPGKAPKLLIYAASTLQSGVPSRFSGSGSGTDFTLTISCLQSEDFATYYCQQYYSYPRTFGGGTKVDIK
**Q.** Which ZIKV binding Abs 450 nm [1] does the source give for B1 here?
**A.** 0.17 Abs 450 nm

**Q.** And the % of Zika virus Neutralized (Vero infectivity assay), antibody at 1 µg/ml [2]?
**A.** 82.3%

**Q.** And the Neut50 [2]?
**A.** 2 µg/mL

**Q.** What about the PRNT50 (plaque reduction neutralization test) [2] of the same binder?
**A.** 2 µg/mL

**Q.** And the P1F12-ZIKV inhibition assay (Abs450) [3]?
**A.** 0.34 Abs450

**Q.** And the P1F12-ZIKV inhibition assay (Abs450) [4]?
**A.** 0.15 Abs450

**Q.** And the P1F12-ZIKV inhibition assay (Abs450) [5]?
**A.** 0.32 Abs450

**Q.** And the P1F12-ZIKV inhibition assay (Abs450) [6]?
**A.** 0.18 Abs450

**Q.** And the P1F12-ZIKV inhibition assay (Abs450) [7]?
**A.** 0.26 Abs450

**Q.** And the P1F12-ZIKV inhibition assay (Abs450) [8]?
**A.** 0.28 Abs450

**Q.** What about the P1F12-ZIKV inhibition assay (Abs450) [9] of the same binder?
**A.** 0.03 Abs450

**Q.** What about the P1F12-ZIKV inhibition assay (Abs450) [10] of the same binder?
**A.** 0.04 Abs450

**Q.** And the P1F12-ZIKV inhibition assay (Abs450) [11]?
**A.** 0.05 Abs450

**Q.** And the P1F12-ZIKV inhibition assay (Abs450) [12]?
**A.** 0.25 Abs450

**Q.** What about the P1F12-ZIKV inhibition assay (Abs450) [13] of the same binder?
**A.** 0.18 Abs450

**Q.** What about the P1F12-ZIKV inhibition assay (Abs450) [14] of the same binder?
**A.** 0.36 Abs450

**Q.** And the P1F12-ZIKV inhibition assay (Abs450) [15]?
**A.** 0.19 Abs450

**Q.** And the P1F12-ZIKV inhibition assay (Abs450) [16]?
**A.** 0.29 Abs450

**Q.** What about the P1F12-ZIKV inhibition assay (Abs450) [17] of the same binder?
**A.** 0.29 Abs450

**Q.** What about the P1F12-ZIKV inhibition assay (Abs450) [18] of the same binder?
**A.** 0.62 Abs450

**Q.** And the P1F12-ZIKV inhibition assay (Abs450) [19]?
**A.** 0.04 Abs450

**Q.** What about the P1F12-ZIKV inhibition assay (Abs450) [20] of the same binder?
**A.** 0.03 Abs450

**Q.** And the P1F12-ZIKV inhibition assay (Abs450) [21]?
**A.** 0.05 Abs450

**Q.** What about the P1F12-ZIKV inhibition assay (Abs450) [22] of the same binder?
**A.** 0.03 Abs450

**Q.** And the P1F12-ZIKV inhibition assay (Abs450) [23]?
**A.** 0.04 Abs450
